The results in this text go back to patent US20160327558A1 (HELMHOLTZ ZENTRUM M NCHEN DEUTSCHES FORSCHUNGSZENTRUM F R …, published 2016).

Test [1] deals with T1, Human cathepsin B (human, UniProt P07858 80-333). The experiment in a line: reduction of the labeled cathepsin B band and in vitro cathepsin B cleavage assay. How it is done:
0.2 ng cathepsin B together with probe 5, z-VRPR-FMK, mepazine or CA-074 was incubated with 1 mM zRR-AMC substrate for 2 h at 30° C. Assay was performed in 0.1 M sodium acetate pH 5.5, 10 mM DTT and 0.1 mM EDTA. Again, increase of AMC fluorescence is measured in a Synergy 2 Microplate Reader (Biotek).
Importantly, MALT1 was the only inducible band in extracts labeled with probe 5, although some background signals were obtained. […] As expected, Caspase 8 activity was not affected by the diagnostic inhibitors of MALT1 of the present invention. […] In agreement with cross-reaction of the diagnostic MALT1 inhibitors of the present invention and cathepsin B, preincubation of CA-074Me in Jurkat T cells completely abolished detection of the ˜30 kDa signal while inducible MALT1 labeling was unaffected (FIG. 3D). Thus, tetrapeptides that target the active site of MALT1 are also binding to cathepsin B. Since serine (LRSR) or proline (VRPR) at the P2 position is already poorly tolerated by cysteine cathepsins, improvement of the peptide scaffold may be very difficult.

The target in test [2] is T1, Human cathepsin B. The experiment in a line: Jurkat whole cell extract labeled with probe 5 or probe 6, fluorescent scanning. How it is done:
FIG. 6: Jurkat T cells were stimulated or not, lysed and whole cell extract was incubated with indicated concentrations of FITC conjugated probe 5 or BODIPY conjugated probe 6 and analyzed via fluorescent scanning. Probe 6 results in slightly higher active MALT1 labeling and cathepsin labeling (open circle) seems to be reduced.
Jurkat T cells (1-2×10⁷), primary human PBMCs or primary human T cells (0.25 or 1×10⁷) were lysed in 150 μl co-IP buffer without protease inhibitors. DLBCL (3×10⁷) were lysed in 250 μl buffer. After centrifugation (14000 rpm, 10 min, 4° C.), 100 μl extract (DLBCL: 200 μl) was stained with probe 5 or probe 6 (3 μM end) for 50 min at 29° C., mixed with 4× loading dye and boiled.

In test [3] the target is T2, FLAG-MALT1 wt (MALT1 Isoform B, overexpressed in Jurkat T cells) (human, UniProt Q9UDY8 2-824).
T2 construct: also called overexpressed FLAG-MALT1 wt; not shown: N-terminal FLAG tag (or HA tag)
T2 sequence: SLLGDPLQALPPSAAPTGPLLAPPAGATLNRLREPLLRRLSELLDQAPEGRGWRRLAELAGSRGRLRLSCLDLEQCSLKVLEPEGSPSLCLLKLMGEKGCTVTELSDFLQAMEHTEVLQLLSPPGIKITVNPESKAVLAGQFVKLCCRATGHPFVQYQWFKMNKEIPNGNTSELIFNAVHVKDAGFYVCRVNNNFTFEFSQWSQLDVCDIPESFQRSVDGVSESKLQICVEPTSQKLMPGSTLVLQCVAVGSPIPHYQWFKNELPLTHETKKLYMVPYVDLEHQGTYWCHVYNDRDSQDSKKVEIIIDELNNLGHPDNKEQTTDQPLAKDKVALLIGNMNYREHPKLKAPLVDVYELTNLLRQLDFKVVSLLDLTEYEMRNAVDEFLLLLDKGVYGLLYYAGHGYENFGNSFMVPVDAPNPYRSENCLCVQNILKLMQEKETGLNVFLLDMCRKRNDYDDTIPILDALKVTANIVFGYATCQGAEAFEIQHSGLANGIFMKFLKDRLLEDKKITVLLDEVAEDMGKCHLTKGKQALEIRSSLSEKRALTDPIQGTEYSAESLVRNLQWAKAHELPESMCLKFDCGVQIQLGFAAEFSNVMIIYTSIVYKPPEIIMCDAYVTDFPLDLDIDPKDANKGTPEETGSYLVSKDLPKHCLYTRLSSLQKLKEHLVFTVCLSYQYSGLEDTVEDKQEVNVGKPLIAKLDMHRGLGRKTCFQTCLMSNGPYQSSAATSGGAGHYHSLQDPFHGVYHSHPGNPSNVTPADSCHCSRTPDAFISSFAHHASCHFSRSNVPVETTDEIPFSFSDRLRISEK
Nature of the test: labeling after lysis and FLAG IP, in-gel fluorescence. As for the experimental part: (§1) Jurkat T cells, transfected with active FLAG-[…] wt or active site mutant C464A, were stained after lysis and IP with probe 2, pre-clicked to TAMRA. Analysis was done by fluorescence staining.
(§2) Cells were lysed in 500 μl co-IP buffer without protease inhibitors (25 mM hepes pH 7.5, 150 mM NaCl, 0.2% NP-40, 10% glycerol, 1 mM DTT, 10 mM sodium fluoride, 8 mM β-glycerophosphate and 300 μM sodium vanadate), centrifuged (14000 rpm, 10 min, 4° C.) and overexpressed FLAG MALT1 was immunoprecipitated by FLAG (M2) antibody for 3 hours at 4° C. PGS was added for 1 h at 4° C., precipitate was washed 2× with co-IP buffer and 1× with 50 mM hepes pH 7.4. Precipitated MALT1 was incubated with 0.3 μM pre-clicked probe 2 (in 20 μl 50 mM hepes pH 7.4) for 50 min at 29° C., mixed with 4× loading dye and boiled for 3 min. After protein separation by SDS PAGE, staining with diagnostic inhibitor was detected by Typhoon Fluorescence Scanner (FITC laser 488 nm/filter 526 SP; TAMRA laser 532 nm/filter 580 BP).

Test [4] deals with T3, FLAG-MALT1 active site mutant C464A (C453A in Isoform B) (human, UniProt Q9UDY8 2-824).
T3 construct: Isoform B with C453A; also called MALT1 mutant; not shown: N-terminal FLAG tag (or HA tag)
T3 sequence: T2 sequence with C452A
The experiment in a line: labeling after FLAG IP, SDS PAGE, fluorescence scanning. How it is done: as §1, §2

In test [5] the target is T1, Human cathepsin B. The experiment in a line: extracts of Jurkat T cells labeled with probe 5, in-gel fluorescence.

Where a chain is given by its changes, count along the chain named. Primed or numbered codes have the meaning given here. The star is where a group is joined. AOMK(5) = C-terminal Arg as acyloxymethyl ketone (dimethyl benzoic acid leaving group), Cc1cccc(C)c1C(=O)OCC(=O)[C@H](CCCNC(=N)N)N*; AOMK(4) = acyloxymethyl ketone (C-terminal covalent warhead); BODIPY(FL) = CC1=CC(C)=[N+]2C1=Cc1ccc(CCC(=O)*)n1[B-]2(F)F; FITC = O=C1OC2(c3ccc(O)cc3Oc3cc(O)ccc32)c2ccc(NC(=S)*)cc21; Butanoyl(4-ethynyl) = C#CCCCC(=O)*

B1: z-VRPR-FMK (peptide)
peptide: VRPR
modifications: not fully specified; N-terminal z group; C-terminal Arg as fluoromethylketone (FMK)
notes: Bought (Alexis Biochemicals)
Turning to B1, the binding result in the test with Human cathepsin B [1] is “binds”.

B2: probe 6 ((BODIPY-FL)-LRSR-AOMK) (peptide)
peptide: {BODIPY(FL)}-LRSR-{AOMK(5)}
SMILES: CC1=CC(C)=[N+]2C1=Cc1ccc(CCC(=O)N[C@@H](CC(C)C)C(=O)N[C@@H](CCCNC(=N)N)C(=O)N[C@@H](CO)C(=O)N[C@@H](CCCNC(=N)N)C(=O)N[C@@H](CCCNC(=N)N)C(=O)COC(=O)c3c(C)cccc3C)n1[B-]2(F)F
notes: Covalent activity-based probe; also called BODIPY conjugated probe 6; BODIPY probe 6
Consider B2, for which the binding result in the test with Human cathepsin B [2] is “binds”.

B3: probe 2 (alkyne-LRSR-AOMK), pre-clicked to TAMRA (peptide)
peptide: {N‑TAMRA‑3‑aminopropylazide (click)-Butanoyl(4-ethynyl)}-LRSR-{AOMK(5)}
notes: Covalent activity-based probe; also called TAMRA-LRSR-AOMK
Take B3: the binding result in test [3] is given as “binds”; in test [4], “no binding (tested: 0.3 µM pre-clicked probe 2)”.

B4: probe 5 (FITC-LRSR-AOMK) (peptide)
peptide: {FITC}-LRSR-{AOMK(4)}
notes: Covalent activity-based probe; also called FITC conjugated probe 5
For the molecule B4, the binding result in the test with Human cathepsin B [5] is “binds”.
